Reference: patent US20250027068

B1: PRT-65 (protein)
chain: MANQEIRYSEVTPYHVTSVWTKGVTPPANFTQGEDVFHAPYVANQGWYDITKTFNGKDDLLCGAATAGNMLHWWFDQNKDQIKRYLEEHPEKQKINFNGEQMFDVKEAIDTKNHQLDSKLFEYFKEKAFPYLSTKHLGVFPDLVIDMFINGYRLSLTNHGPTPVKEGSKDPRGGIFDAVFTRGDQSKLLTSRHDFKEKNLKEISDLIKKELTEGKALGLSHTYANVRINHVINLWGADFDSNGNLKAIYVTDSDSNASIGMKKYFVGVNSAGKVAISAKEIKEDNIGAQVLGLFTLSTGQDSWNQTN
B2: PRT-639 (protein)
chain: MQITSVWTKGVTPLTPEQFRYNNEDVIHAPYLAHQGWYDITKTFNGKDDLLCGAATAGNMLHWWFDQNKTEIEAYLSKHPEKQKIIFNNQELFDLKAAIDTKDSQTNSQLFNYFRDKAFPNLSARQLGVMPDLVLDMFINGYYLNVFKTQSTDVNRPYQDKDKRGGIFDAVFTRGDQTTLLTARHDLKNKGLNDISTIIKQELTEGRALALSHTYANVSISHVINLWGADFNAEGNLEAIYVTDSDADASIGMKKYFVGINAHGHVAISAKKIEGENIGAQVLGLFTLSSGKDIWQKLSLEHHHHHH
B3: PRT-668 (protein)
chain: MQITSVWTKGVTPLTPEQFRYNNYDVFHAPYLAGQGWYDITKAFDGKDNLLCGAATAGNMLHWWFDQNKTEIEAYLSKYPEKQKIIFNNQELFDLRKAINTKDSQTNSELFNYFRDKAFPNLSARQLGVMPDLVLDMFINGYYLNVFKTQSTDVNRPYQDKDKRGGIFDAVFNRGDQTKLLTARHDLKNKGLNDISTLIKQELSSGRALALSHTTANVSISHVINLWGADFNAEGNLEAIYVTDSDDDSNIGMKKYKVGINASGHVAISAKKIEGENIGAQVLGLFTLSSGKDIWQKLSLEHHHHHH
B4: PRT-666 (protein)
chain: MQITSVWTKGVTPPTPEQFRNNNEDVFHAPYLANQGWYDITKTFNGKDDLLCGAATAGNMLHWWFDQNKTEIEAYLKKHPEKQKIIFNNQELFDLKKAIDTKDSQTNSQLFNYFRDKAFPNLSARQLGVMPDLVLDMFINGYYLNVTKTQSTDVNRPYQDKDKRGGIFDAVFTRGDQTTLLTSRHDLKNKGLNEISDLIKQELTEGKALALSHTYANVSINHVINLWGADFNAEGNLEAIYVTDSDSNASIGMKKYFVGVNASGKVAISAKKIEGENIGAQVLGLFTLSSGKDIWQKLSLEHHHHHH
B5: PRT-607 (protein)
chain: MQITSVWTYGVKPLTPEQFRYNNEDVIHAPYLEHQGWYDITKAFDGKDNLLCGAATAGNMLHWWFDQNKTEIEAYLSKHPEKQKIIFNNQELFDLKAAIDTKDSQTNSQLFNYFRDKAFPNLSARQLGVMPDLVLDMFINGYYLNVFKTQSTDVNRPYQDKDKRGGIFDAVFTRGDQTTLLTARHDLKNKGLNDISTIIKQELTEGRALALSHTYANVSISHVINLWGADFNAEGNLEAIYVTDSDANASIGMKKYFVGINAHGHVAISAKKIEGENIGAQVLGLFTLSSGKDIWQKLSLEHHHHHH
B6: PRT-671 (protein)
chain: MQITTVWTKGVTPPTPEQFRNNNEDVFHAPYLPHQGWYDITKAFDGKDNLLCGAATAGNMLHWWFDQNKEEIEAYLKKYPEKQKIIFNNQELFDLRKAINTKDSQTNSQLFNYFRDKAFPNLSARQLGVMPDHVLDMFINGYYLNVFKTQSTDVNRPYQTRDKRGGIFDAVFNRGDQTTLLTERHDLYNKGLDDISTLIKQELSSGKALGLSHTYANVSISHVINLWGADFNAEGNLEAIYVTDSDDDASIGMKKYYVGKNASGHVRISAKKIEGENIGAQVLGLFTLSTGKDIWQKLSLEHHHHHH
B7: PRT-565 (protein)
chain: MANQEIRYSEATPSHITSVWTKGVTPPTQFIQNEDVLHAPYIANQGWYDITKTFNGKDDLLCGAATAGNMLHWWFDQNKEQIENYLKKHPEKQKINFNGEQMFDVKEAIDTKDSQTDSALFSYFKDKAFPYLSTKHLGVFPDHVIDMFINGYRLSLTNHGPTPVKRQTKDPRGGIFDAVFTRGDQSKLLTSRHDFKEKTLNEISQLIKQELTEGKALGLSHTYANVRINHVINLWGADFNAEGNLEAIYVTDSDSNASIGMKKYYVGVNSAGKVAISAKEIEGDNIGAQVLGLFTLSTGQDIWQQTNLEHHHHHH
B8: PRT-532 (protein)
chain: MANQEIRYSEETPKTITSIWTKGVTPPTDFIKNEDVLHAPYIANQGWYDITKTFNGKDDLLCGAATAGNMLHWWFDQNKEEIENYLKKHPEKQKINFNGEQMFDVKEAIDTKDSQTDSKLFEYFKDKAFPYLSTKHLGVMPDLVLDMFINGYYLSLGKHGPTPVKRGTKDPRGGIFDAVFTRGDQSKLLTARHDFKEKTLNEISDLIKQELTEGKALALSHTYANVRINHVINLWGADFNSEGNLEAIYVTDSDSNASIGMKKYYVGVNAAGKVAISAKEIEGDNIGAQVLGLFTLSTGQDIWNQTNLEHHHHHH
B9: PRT-629 (protein)
chain: MQITSVWTKGVTPLTPEQFRYNNEDVIHAPYLAHQGWYDITKAFDGKDNLLCGAATAGNMLHWWFDQNKEEIEAYLKKYPEKQKIIFNNQELFDLKAAIDTKDSQTNSQLFNYFRDKAFPNLSARQLGVMPDLVLDMFINGYYLNVFKTQSTDVNRPYQDKDKRGGIFDAVFTRGDQTTLLTARHDLKNKGLNDISTIIKQELTEGRALALSHTYANVSISHVINLWGADFNAEGNLEAIYVTDSDANASIGMKKYFVGINAHGHVAISAKKIEGENIGAQVLGLFTLSSGKEIWQKLSLEHHHHHH
B10: PRT-654 (protein)
chain: MQITSVWTKGVTPLTPEQFRYNNEDVIHAPYLAHQGWYDITKAFDGKDNLLCGAATAGNMLHWWFDQNKTEIEAYLSKHPEKQKIIFNNQELFDLKAAIDTKDSQTNSQLFNYFRDKAFPNLSARQLGVMPDLVLDMFINGYYLNVFKTQSTDVNRPYQDKDKRGGIFDAVFTRGDQTTLLTARHDLKNKGLNDISTIIKQELTEGRALALSHTTGNVSYSHVINLWGADFNAEGNLEAIYVTDSDANASIGMKKYFVGINAHGHVAISAKKIEGENVGAQVLGLFTLSSGKDIWQKLSLEHHHHHH
B11: PRT-620 (protein)
chain: MQITSVWTKGVTPLTPEQFRYNNEDVIHAPYLAHQGWYDITKAFDGKDNLLCGAATAGNMLHWWFDQNKTEIEAYLSKHPEKQKIIFNNQELFDLKAAIDTKDSQTNSQLFNYFRDKAFPNLSARQLGVMPDLVLDMFINGYYLNVFKTQSTDVNRPYQDKDKRGGIFDAVFTRGDQTTLLTARHDLKNKTLKEISDIIKQELTEGRALALSHTYANVSISHVINLWGADFNAEGNLEAIYVTDSDANASIGMKKYFVGINAHGHVAISAKKIEGENIGAQVLGLFTLSSGKDIWQKLSLEHHHHHH
B12: PRT-66 (protein)
chain: MANQEIRYSEVTPYHVTSVWTKGVTPPANFTQGEDVFHAPYVANQGWYDITKTFNGKDDLLCGAATAGNMLHWWFDQNKDYIKRYLEEHPEKQKINFNGEQMFDVKEAIDTKNHQLDSKLFEYFKEKAFPYLSTKHLGVFPDHVIDMFINGYRLSLTNHGPTPVKEGSKDPRGGIFDAVFTRGDQSKLLTSRHDFKEKNLKEISDLIKKELTEGKALGLSHTYANVRINHVINLWGADFDSNGNLKAIYVTDSDSNASIGMKKYFVGVNSAGKVAISAKEIKEDNIGAQVLGLFTLSTGQDSWNQTN
B13: PRT-659 (protein)
chain: MQITSVWTKGVTPLTPEQFRYNNEDVIHAPYLAHQGWYDITKAFDGKDNLLCGAATAGNMLHWWFDQNKTEIEAYLSKHPEKQKIIFNNQELFDLREAINTKDDQKDSKLFNYFREKAFPNLSARQLGVMPDLVLDMFINGYYLNVFKTQSTDVNRPYQDKDKRGGIFDAVFTRGDQTTLLTARHDLKNKGLNDISTIIKQELTEGRALALSHTYANVSISHVINLWGADFNAEGNLEAIYVTDSDANASIGMKKYFVGINAHGHVAISAKKIEGENIGAQVLGLFTLSSGKDIWQKLSLEHHHHHH
B14: PRT-615 (protein)
chain: MQITSVWTKGVTPLTPEQFRYNNEDVIHAPYLAHQGWYDITKAFDGKDNLLCGAATAGNMLHWWFDQNKTEIEAYLSKYPEKQKIIFNNQELFDLRAAINTKDSQTNSQLFNYFRDKAFPNLSARQLGVMPDLVLDMFINGYYLNVFKTQSTDVNRPYQDKDKRGGIFDAVFNRGDQTTLLTARHDLKNKGLNDISTIIKQELSSGRALALSHTYANVSISHVINLWGADFNAEGNLEAIYVTDSDANSNIGMKKYKVGINAHGHVAISAKKIEGENIGAQVLGLFTLSSGKDIWQKLSLEHHHHHH

Each protein was assayed against pooled human IgG.
B1 gave an Enzyme Activity Endpoint Assay (purified): Fab′2 of 35 ng/µL, an Enzyme Activity Endpoint Assay (purified): Fc of 100 ng/µL and an Enzyme Activity Endpoint Assay (purified): IgG of 26 ng/µL. It also gave an Enzyme Activity Endpoint Assay (purified): scIgG of 34 ng/µL. B2 was tested, and the Enzyme Activity Endpoint Assay (purified): Fab′2 was 788 ng/µL, the Enzyme Activity Endpoint Assay (purified): Fc was 450 ng/µL and the Enzyme Activity Endpoint Assay (purified): IgG was 0 ng/µL. The Enzyme Activity Endpoint Assay (purified): scIgG was 0 ng/µL. B3 showed an Enzyme Activity Endpoint Assay (purified): Fab′2 of 563 ng/µL, an Enzyme Activity Endpoint Assay (purified): Fc of 0 ng/µL and an Enzyme Activity Endpoint Assay (purified): IgG of 1070 ng/µL. For the same protein, the Enzyme Activity Endpoint Assay (purified): scIgG was 14 ng/µL. B4 showed an Enzyme Activity Endpoint Assay (purified): Fab′2 of 897 ng/µL, an Enzyme Activity Endpoint Assay (purified): Fc of 132 ng/µL and an Enzyme Activity Endpoint Assay (purified): IgG of 66 ng/µL. For the same protein, the Enzyme Activity Endpoint Assay (purified): scIgG was 0 ng/µL. B5 was tested, and the Enzyme Activity Endpoint Assay (purified): Fab′2 was 779 ng/µL, the Enzyme Activity Endpoint Assay (purified): Fc was 470 ng/µL and the Enzyme Activity Endpoint Assay (purified): IgG was 0 ng/µL. The Enzyme Activity Endpoint Assay (purified): scIgG was 0 ng/µL. Work on B6 yielded an Enzyme Activity Endpoint Assay (purified): Fab′2 of 97 ng/µL, an Enzyme Activity Endpoint Assay (purified): Fc of 294 ng/µL and an Enzyme Activity Endpoint Assay (purified): IgG of 244 ng/µL. For the same protein, the Enzyme Activity Endpoint Assay (purified): scIgG was 864 ng/µL. Protein B7 has an Enzyme Activity Endpoint Assay (purified): Fab′2 of 783 ng/µL, an Enzyme Activity Endpoint Assay (purified): Fc of 471 ng/µL and an Enzyme Activity Endpoint Assay (purified): IgG of 0 ng/µL. The Enzyme Activity Endpoint Assay (purified): scIgG was 0 ng/µL. For B8, the Enzyme Activity Endpoint Assay (purified): Fab′2 was 409 ng/µL, the Enzyme Activity Endpoint Assay (purified): Fc was 118 ng/µL and the Enzyme Activity Endpoint Assay (purified): IgG was 506 ng/µL. The Enzyme Activity Endpoint Assay (purified): scIgG was 217 ng/µL. Protein B9 has an Enzyme Activity Endpoint Assay (purified): Fab′2 of 542 ng/µL, an Enzyme Activity Endpoint Assay (purified): Fc of 425 ng/µL and an Enzyme Activity Endpoint Assay (purified): IgG of 161 ng/µL. The Enzyme Activity Endpoint Assay (purified): scIgG was 461 ng/µL. With B10 the Enzyme Activity Endpoint Assay (purified): Fab′2 was 401 ng/µL, the Enzyme Activity Endpoint Assay (purified): Fc was 0 ng/µL and the Enzyme Activity Endpoint Assay (purified): IgG was 1170 ng/µL. For the same protein, the Enzyme Activity Endpoint Assay (purified): scIgG was 11 ng/µL. Protein B11 has an Enzyme Activity Endpoint Assay (purified): Fab′2 of 792 ng/µL, an Enzyme Activity Endpoint Assay (purified): Fc of 448 ng/µL and an Enzyme Activity Endpoint Assay (purified): IgG of 0 ng/µL. The Enzyme Activity Endpoint Assay (purified): scIgG was 0 ng/µL. Work on B12 yielded an Enzyme Activity Endpoint Assay (purified): Fab′2 of 49 ng/µL, an Enzyme Activity Endpoint Assay (purified): Fc of 115 ng/µL and an Enzyme Activity Endpoint Assay (purified): IgG of 15 ng/µL. It also gave an Enzyme Activity Endpoint Assay (purified): scIgG of 13 ng/µL. B13 gave an Enzyme Activity Endpoint Assay (purified): Fab′2 of 946 ng/µL, an Enzyme Activity Endpoint Assay (purified): Fc of 499 ng/µL and an Enzyme Activity Endpoint Assay (purified): IgG of 0 ng/µL. It also gave an Enzyme Activity Endpoint Assay (purified): scIgG of 0 ng/µL. B14 showed an Enzyme Activity Endpoint Assay (purified): Fab′2 of 778 ng/µL, an Enzyme Activity Endpoint Assay (purified): Fc of 441 ng/µL and an Enzyme Activity Endpoint Assay (purified): IgG of 0 ng/µL. It also gave an Enzyme Activity Endpoint Assay (purified): scIgG of 0 ng/µL.
